Data taken from US20160333068A1 (BRITISH COLUMBIA CANCER AGENCY BRANCH, published 2016).
Bridge positions count the residues as written; N and C are the ends. Square brackets hold non-standard residues; d marks the D form. AMBF3 = N,N-dimethylammoniomethyl-trifluoroborate

Molecular target: T1, sstr3 (UniProt P32745 1-418, limits assumed)
T1 construct: whole, on cells; Membranes of transfected CHO-K1 cells; The species is printed only for sstr2 (human); also called somatostatin receptor subtype 3
T1 sequence (P32745 whole entry): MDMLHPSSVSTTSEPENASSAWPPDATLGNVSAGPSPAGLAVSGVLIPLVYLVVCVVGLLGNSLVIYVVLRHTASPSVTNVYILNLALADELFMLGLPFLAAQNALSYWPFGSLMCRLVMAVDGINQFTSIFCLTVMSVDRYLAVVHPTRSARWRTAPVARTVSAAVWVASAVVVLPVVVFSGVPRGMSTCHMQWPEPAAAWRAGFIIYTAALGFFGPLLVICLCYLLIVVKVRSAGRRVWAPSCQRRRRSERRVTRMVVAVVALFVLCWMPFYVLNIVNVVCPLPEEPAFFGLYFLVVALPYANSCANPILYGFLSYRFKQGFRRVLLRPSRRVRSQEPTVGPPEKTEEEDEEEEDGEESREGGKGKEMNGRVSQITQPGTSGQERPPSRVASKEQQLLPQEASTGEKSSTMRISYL
Assay: competitive filtration binding assay, displacement of [^125I]-Tyr-somatostatin-14 (0.2 nM) from CHO-K1 membranes
Description: Membranes from Chinese hamster ovary K1 cells transfected with sstr1, sstr2, sstr3, sstr5, and [¹²⁵I]-Tyr-somatostatin-14 were obtained from PerkinElmer. A standard filtration binding assay was performed in 96-well plates (MultiScreen; Millipore) to determine the binding affinities (inhibition constant, or Kᵢ) of AMBF₃-TATE against different receptor subtypes. Briefly, membranes ([…]) were incubated with the ¹²⁵I-labelled standard at a concentration of 0.05 nM for sstr2 or 0.2 nM for other subtypes. Increasing concentrations of AMBF₃-TATE were added to the wells in buffer (25 mM N-2-hydroxyethylpiperazine-N-2-ethanesulfonic acid, pH 7.4; 10 mM MgCl₂; 1 mM CaCl₂; and 0.5% bovine serum albumin). After incubation (37° C., 1 h), the wells were aspirated and washed 8 times with 50 mM ice-cold buffer (Tris-HCl, pH 7.4) over grade GF/B filters. The filters were removed and counted by a γ counter (Cobra II; Packard). Data were fitted to a 1-site competition model (GraphPad Prism 6.1 software) to calculate Kᵢ.

B1: AMBF3-TATE (peptide)
peptide: {AMBF3-triazolylacetyl}-[dF]CY[dW]KTCT-OH
modifications: disulfide 2-7
notes: Free C-terminal acid (octreotate); also called ^19F-AMBF3-TATE; ^18F-AMBF3-TATE
For B1, the Ki was 28.4 nM.
